The numbers were not newly measured in publication PMC12411175, which cites them from elsewhere.

pKd: −log10 of the molar value.

The target of this series is insulin receptor (Homo sapiens) (UniProt P06213).
UniProt P06213, sequence (P06213 763-1382): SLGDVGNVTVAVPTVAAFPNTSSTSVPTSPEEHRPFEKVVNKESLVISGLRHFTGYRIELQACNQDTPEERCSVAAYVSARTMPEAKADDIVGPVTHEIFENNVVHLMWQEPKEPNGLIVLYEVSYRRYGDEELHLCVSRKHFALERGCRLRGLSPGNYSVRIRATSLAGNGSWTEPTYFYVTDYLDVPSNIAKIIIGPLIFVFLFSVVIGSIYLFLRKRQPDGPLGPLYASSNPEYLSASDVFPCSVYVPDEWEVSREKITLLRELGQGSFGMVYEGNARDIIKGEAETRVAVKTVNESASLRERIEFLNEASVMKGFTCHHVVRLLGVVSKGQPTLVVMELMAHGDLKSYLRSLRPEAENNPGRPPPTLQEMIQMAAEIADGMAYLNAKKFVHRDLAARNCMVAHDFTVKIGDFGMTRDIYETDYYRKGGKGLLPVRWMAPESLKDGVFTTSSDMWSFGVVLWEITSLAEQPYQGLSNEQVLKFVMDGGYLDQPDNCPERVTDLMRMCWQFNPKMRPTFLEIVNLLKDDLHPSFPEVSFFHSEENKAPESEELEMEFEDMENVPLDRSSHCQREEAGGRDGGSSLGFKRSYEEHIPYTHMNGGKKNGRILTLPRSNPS

insulin, sequence (P01308 90-110): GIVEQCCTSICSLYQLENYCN

What is called pKd is −log10 of the Kd, conventionally taken in molar units. For insulin (from UniProt P01308), the pKd is 10.70.
